According to the nanobody polyreactivity screen of Harvey et al. (2022):

Assay: yeast display, Sf9 membrane polyspecificity reagent, FACS + sequencing; frameworks hold sequencing errors
How it was run: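 Galactose induction of a Saccharomyces cerevisiae BJ5465 synthetic nanobody display library ran 36–48 hours. The cells were then stained for 1 hour at 4 °C with 10% biotinylated, detergent-solubilized Sf9 membrane reagent, pulled down on streptavidin microbeads and FACS-sorted into low and high (top ~1%) gates on expression and reagent-binding fluorescence. Labels for polyreactivity follow the gate of origin.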

Row | Sequence | polyreactivity (PSR sort gate)
1 | QVQLVESGGGLVQAGGSLRLSCAASGRIFYGNARGWYRQAPGKERELVATISSSGGRTPYADSVKGRFTISRDNAKNTVYLQMNSLKPEDTAVYYCAAQGYWTGYDYWGQGTQVTVSS | high polyreactivity
2 | QVQLVESGGGLVQAGVSLRLSCAASGSTFGANAMGWYRQAPGKEREFVAAISGSGTTTYYADSVKGRFTISRDNAKNTVYLQMNSLKPEDTAVYYCAKTRKAHWLEYWGQGTQVTVSS | low polyreactivity
3 | QVQLVESGGGLVQAGGSLRLSCAASGSTFSYYAMGGYRQEPGKERELVAAISRGTRTYYADSVKGSFSISRDNAKNTVYLLMNSLKAEDTAVYYCAADLWYTRYYYWGQGTQVTVSS | high polyreactivity
4 | QGQLVESGGGLVQAGGSLRLSCAASGFIFDNNAMGWYRQAPGKERELVAAISFSAGSTYYADSVKGRFTISRDNAKNTVYLQMNSLNPEDTAVYYCNADDWWGGYDYWGQGTQVTVSS | low polyreactivity
5 | QVQLVESGVRLVQAGGSLRLSCAASGRTLKYNAMGWYIQAPGKERELVAAISYSGSSTYYADSVRGRFTISRDNAKNTVYLQMNSLKPEDTAVYYFNTARPTAAYDYWGQGTQVTVSS | low polyreactivity
6 | QVQLVESGGGLVQAGGSLRLSCAASGIIFDDYALGWYRPAPGKVRELVAAINSNGGTTYYADSVKGRFTISRDNAKNTVYLQMNSLKPEDTAVYYCAARPYRIGRYGYDYDYWGQGTQVTVSS | high polyreactivity
7 | QVQLVESGGGLVQAGGSLRLSCAASGIIFSTYAMGWYRQAPGKERELVAAISSGGRTYYADSVKGRFTISRDNAKNTVYLQMNSLKPEDTAVYYCAASYYRYYSGWTPYYYWGQGTQVTVSS | high polyreactivity
8 | QVQLVESGGGLVQAGGSLRLSCAASGSTFVANAMGWYRQAPGKERELVAAISGAGGGTYYADSVKGRFTISRDNAKNTVYLQMNSLKPEDTAVYYCAAVPWYYYHYWVSHPYGGDYWGQGTQVTVSS | low polyreactivity
9 | QVQLVESGGGLVQAGGSLRLSCAASGRTFNSNAMGCYRQAPGKERELVARISRGASTYYADSVKGRFTISRDNAKNTVYLQMNSLKPEDTAVYYCAKRRRSAAPKYDYWGQGTQVTVSS | high polyreactivity
10 | QVQLVESGGGLVQAGGSLRLSCAASGRILGYYAMGWYRQAPGKERDLVAAISRAGSTNYADSVKGRFTISRDNAKNTVYLQMNSLKAEDTAVYYCAARPYRRGYNYWGQGTQVTVSS | high polyreactivity
11 | QVQLVESGGGLVQAGGSLRLSCAASGSILSGNTMGWYRPAPGKERELVAAISYGGGSTYYADSVKGRFTISRDNAKNTVYLQMNSLKPEDTAVYYCAADPWYVAYLLDGYGMDYWGQGTQVTVSS | low polyreactivity
12 | QVQLVESGGGLVQAGGSLRLSCAASRFTFRRNAMGWYRQAPGKERELVAAITYNGGTTYYADSVKGRFTISRDNAKNTVYLQMNSLKPEDTAVYYCNAPYGRQGYDYWGQGTQVTVSS | low polyreactivity
13 | QVQLVDSGGGLVQAGGSLRLSCAASGSTFRGNAMGWSRQAPGKERELVAAISASGGRTYYADSVKGRFTISRDNAKNTVYLQMNSLKPEETAVYYCAVRDQTDKVPFYYWGQGTQVSVSS | high polyreactivity
14 | QVQLVESGGGIVQAGGSLRLSSAASGFTFYYYAIGWYRQAPGKERELVAAISSGGSTYYADSVKGRFTISRDNAKNTVYLQMNSLKPEDTAVYYCAADSLYYRYDYWGQGTQVTVSS | low polyreactivity
15 | QVQVVESGGGLVQAGGSLRLSCAASGSIFGGYTMGWYRQAHGNERELVAGITISGGSTYYADSVKGRFTISRDTAKNTVYLQMNSLKPEDTAVYYCAAVSFVVSSWGYGYWGQGTQVTVSS | low polyreactivity
16 | QVQLVESGGGLVQAGGSLRLICAASGSTFYPNAMGWYRPAPGKERELVAAITSAGSTYYADSVKGRFTISRDNAKNTVYLQMNSLKPEDTAVYYCAKRRASRYDWGQGTQVTVSS | high polyreactivity
17 | QVQLVESGGGLVQAGGSLRLTCAASGRTFRYYVMGWYRQAPGKERELVASITSDATYYADSVKGRFTISRDNAKNTVYLQLNSLKPEDTAVYYCAKRYPYRHRTYNPVAYDYWGQGTQVTVSS | high polyreactivity
